Among the data in patent US20140287029A1 are T2 Binding (mean fluorescence intensity) values, retold here.

In this experiment the target is HLA-A2 molecules on T2 cells (human). The experiment in a line: T2 cell-binding assay, flow cytometry of HLA-A2 on T2 cells, peptide 25 µg/mL; negative control. The note with it: remark: other sources report otherwise.

As to HLFGYSWYK [CAP-7 peptide], the T2 Binding (mean fluorescence intensity) is 88 MFI.
